Assay results: publication PMC3351163

Target: TetR(B) (UniProt P04483 1-207)
Assay: cytometric bead binding assay

TetR(B), sequence (P04483 whole entry): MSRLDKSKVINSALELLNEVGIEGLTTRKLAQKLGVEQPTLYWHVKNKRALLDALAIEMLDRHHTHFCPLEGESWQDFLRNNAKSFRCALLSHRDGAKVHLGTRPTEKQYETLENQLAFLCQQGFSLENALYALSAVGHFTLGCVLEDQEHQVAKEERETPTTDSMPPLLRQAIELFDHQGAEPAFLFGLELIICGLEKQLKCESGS

B1: 5-1.2m2 (structured_RNA)
RNA: GGAUCCAGGCAGUGUAAGGUCGAUACGGACGGAAUGUGAUGGCCUGGAUCCAAA
binding result: no binding
